These results are taken from PMC12247212 (RSC Chemical Biology, 2025).

Experiment [1] addresses T1, CD16a-mMBP (Homo sapiens, allotype  …, UniProt P08637).
T1 construct: monovalent antigen; MW ~63 kDa; also called CD16a (FCGR3A); FcγRIIIa; source: Expi293F, transfected (pcDNA3.4 without SpyTag003), harvested 6 days post-transfection, purified
As to the kind of experiment: BLI; SpyBLI single-cycle kinetics, Octet-K2; SpyTagged nanobody or scFv loaded from crude mammalian cell supernatant (1:1 with PBS + 0.05% Tween-20) onto biotinylated SpyCatcher003 S49C on streptavidin sensors; purified antigen as analyte at five increasing concentrations; 30 °C, 1000 rpm, PBS pH 7.5, 0.05% Tween-20; 1:1 standard model (1:1 partial dissociation model for Nb24); averages of three independent …. Conditions: one partner purified.

Experiment [2] addresses T1, CD16a-mMBP. Briefly: BLI; SpyBLI single-cycle kinetics, Octet-K2; purified SpyTagged nanobody or scFv loaded at 100 nM onto biotinylated SpyCatcher003 S49C on streptavidin sensors; purified antigen as analyte at five increasing concentrations; 30 °C, 1000 rpm, PBS pH 7.5, 0.05% Tween-20; 1:1 standard model (1:1 partial dissociation model for Nb24); averages of three independent experiments. The conditions noted are these: both partners purified.

Experiment [3] deals with T1, CD16a-mMBP. Briefly: BLI; SpyBLI single-cycle kinetics, Octet-K2; SpyTagged nanobody or scFv loaded from cell-free reaction blend (diluted 100-fold in PBS + 0.05% Tween-20) onto biotinylated SpyCatcher003 S49C on streptavidin sensors; purified antigen as analyte at five increasing concentrations; 30 °C, 1000 rpm, PBS pH 7.5, 0.05% Tween-20; 1:1 standard model (1:1 partial dissociation model for Nb24); averages of three independent …. The conditions noted are these: one partner purified. (In BLI a coated tip is dipped into the sample, and binding shifts an interference pattern.)

In experiment [4] the target is T2, hen egg-white lysozyme (Gallus gallus, UniProt P00698).
T2 construct: lysozyme from chicken egg-white, Sigma-Aldrich 62971; also called Lysozyme from chicken egg-white; source: bought: Sigma-Aldrich (62971); further purified by SEC (Superdex 75 Increase)
T2 sequence (P00698 19-147): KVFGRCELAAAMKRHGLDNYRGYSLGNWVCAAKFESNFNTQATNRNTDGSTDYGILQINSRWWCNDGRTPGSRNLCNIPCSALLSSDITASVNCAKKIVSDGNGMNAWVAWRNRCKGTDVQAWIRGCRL
Described as above. The conditions noted are these: one partner purified.

Experiment [5] addresses T3, β2-microglobulin (Homo sapiens (assumed), UniProt P61769).
T3 construct: β2-microglobulin, recombinant; MW ~12 kDa
Briefly: BLI; SpyBLI single-cycle kinetics, Octet-K2; SpyTagged nanobody or scFv loaded from crude mammalian cell supernatant (1:1 with PBS + 0.05% Tween-20) onto biotinylated SpyCatcher003 S49C on streptavidin sensors; purified antigen as analyte at five increasing concentrations; 30 °C, 1000 rpm, PBS pH 7.5, 0.05% Tween-20; 1:1 standard model (1:1 partial dissociation model for Nb24); averages of three independent …. The conditions noted are these: one partner purified.

The target in experiment [6] is T3, β2-microglobulin. As to the kind of experiment: BLI; SpyBLI single-cycle kinetics, Octet-K2; purified SpyTagged nanobody or scFv loaded at 100 nM onto biotinylated SpyCatcher003 S49C on streptavidin sensors; purified antigen as analyte at five increasing concentrations; 30 °C, 1000 rpm, PBS pH 7.5, 0.05% Tween-20; 1:1 standard model (1:1 partial dissociation model for Nb24); averages of three independent experiments. Conditions: both partners purified.

The target in experiment [7] is T3, β2-microglobulin. Briefly: BLI; SpyBLI single-cycle kinetics, Octet-K2; SpyTagged nanobody or scFv loaded from cell-free reaction blend (diluted 100-fold in PBS + 0.05% Tween-20) onto biotinylated SpyCatcher003 S49C on streptavidin sensors; purified antigen as analyte at five increasing concentrations; 30 °C, 1000 rpm, PBS pH 7.5, 0.05% Tween-20; 1:1 standard model (1:1 partial dissociation model for Nb24); averages of three independent …. The conditions noted are these: one partner purified.

T3 sequence (P61769 21-119): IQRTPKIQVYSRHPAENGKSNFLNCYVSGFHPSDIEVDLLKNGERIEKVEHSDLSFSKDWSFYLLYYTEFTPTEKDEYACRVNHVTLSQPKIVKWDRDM
T1 sequence (P08637 17-254): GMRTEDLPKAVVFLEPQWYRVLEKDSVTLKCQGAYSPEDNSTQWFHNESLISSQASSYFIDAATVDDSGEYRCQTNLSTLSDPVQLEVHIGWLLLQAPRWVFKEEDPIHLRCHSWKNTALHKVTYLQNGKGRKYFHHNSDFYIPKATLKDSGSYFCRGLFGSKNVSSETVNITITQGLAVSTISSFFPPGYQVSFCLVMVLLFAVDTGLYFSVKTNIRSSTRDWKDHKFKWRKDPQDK

B1: anti-CD16a scFv, SpyTagged (mammalian expression) (scFv, V domains shown)
VH: EVQLVQSGAEVKKPGESLKVSCKASGYTFTSYYMHWVRQAPGQGLEWMGAIEPMYGSTSYAQKFQGRVTMTRDTSTSTVYMELSSLRSEDTAVYYCARGSAYYYDFADYWGQGTLVTVSS
VL: SYVLTQPSSVSVAPGQTATISCGGHNIGSKNVHWYQQRPGQSPVLVIYQDNKRPSGIPERFSGSNSGNTATLTISGTQAMDEADYYCQVWDNYSVLFGGGTKLTVL
notes: scFv of the FcγRIIIa-targeting arm of RO7297089; (G3S)2 linker between the scFv and SpyTag003; also called FcγRIIIa-targeting arm of the bispecific antibody RO7297089; source: Expi293F, transfected (pcDNA3.4); purified (His Mag Sepharose Excel, SEC) or used directly as crude mammalian cell supernatant; not shown: SpyTag003 (after a (G3S)2 linker), C-terminal, kept
One may read the Kd as the concentration at which binding is half-saturated. A word on the koff: it is a measure of how fast the partners let go of each other. Broadly, the kon is a measure of how fast the partners come together. B1: in experiment [1], the dissociation constant (Kd) came to 4.3 nM, the koff stood at 0.00081 s⁻¹ and the kon worked out at 187000 M⁻¹ s⁻¹. Moreover, in experiment [2], the equilibrium dissociation constant (Kd) worked out at 6.7 nM, the koff was found to be 0.00113 s⁻¹ and the kon was 171000 M⁻¹ s⁻¹.

B2: anti-CD16a scFv, SpyTagged (cell-free expression) (scFv, V domains shown)
VH: B1 VH
VL: B1 VL
notes: as the scFv of m3; The cell-free fragment design has an optional His-tag; not shown: SpyTag003 (after a (G3S)2 linker), C-terminal, kept
As for B2, in experiment [3], the Kd was determined as 8.1 nM, the koff was determined as 0.0018 s⁻¹ and the association rate constant (kon) worked out at 220000 M⁻¹ s⁻¹.

B3: cAb-Lys3, SpyTagged nanobody (VHH)
VHH: DVQLQASGGGSVQAGGSLRLSCAASGYTIGPYCMGWFRQAPGKEREGVAAINMGGGITYYADSVKGRFTISQDNAKNTVYLLMNSLEPEDTAIYYCAADSTIYASYYECGHGLSTGGYGYDSWGQGTQVTVSS
notes: nanobody cAb-Lys3; The cell-free fragment design has an optional His-tag; also called Nb cAb-Lys3; not shown: SpyTag003 (after a (G3S)2 linker), C-terminal, kept
Take B3: in experiment [4], the Kd came out at 0.67 nM, the koff was 0.00116 s⁻¹ and the kon was found to be 1.7e+06 M⁻¹ s⁻¹.

B4: Nb24, SpyTagged nanobody (mammalian expression) (VHH)
VHH: QVQLQESGGGSVQAGGSLRLSCAASGYTDSRYCMAWFRQAPGKEREWVARINSGRDITYYADSVKGRFTFSQDNAKNTVYLQMDSLEPEDTATYYCATDIPLRCRDIVAKGGDGFRYWGQGTQVTVSS
notes: nanobody Nb24; (G3S)2 linker between the nanobody and SpyTag003; Covalently captured on biotinylated SpyCatcher003 S49C on streptavidin sensors; also called anti-β2-microglobulin nanobody Nb24; Nb24-SpyTag003; source: Expi293F, transfected (pcDNA3.4); purified (His Mag Sepharose Excel, SEC) or used directly as crude mammalian cell supernatant; not shown: SpyTag003 (after a (G3S)2 linker), …
On to B4, for which, in experiment [5], the dissociation constant (Kd) is 50 nM, the off-rate (koff) came to 0.0114 s⁻¹ and the kon was determined as 240000 M⁻¹ s⁻¹. In experiment [6], binding was characterised by a dissociation constant (Kd) of 49.6 nM, the koff was 0.0112 s⁻¹ and the kon worked out at 230000 M⁻¹ s⁻¹.

B5: Nb24, SpyTagged nanobody (cell-free expression) (VHH)
VHH: B4 VHH
notes: nanobody Nb24; as the VHH of m1; The cell-free fragment design has an optional His-tag; also called Nb24-SpyTag003; not shown: SpyTag003 (after a (G3S)2 linker), C-terminal, kept
As for B5, in experiment [7], the Kd came to 63.8 nM, the koff is 0.014 s⁻¹ and the kon was found to be 220000 M⁻¹ s⁻¹.
